In paper PMC11831497:

Assays:
Details in all cases: glycan lost; control: CTSD WT
[1] = CTSD secretion from CRC cells
[2] = fluorogenic Cathepsin D activity kit, cell lysate
[3] = immunofluorescence co-localisation with EEA1, Rab7, LAMP1, SW480
western blot = experiment: western blot
[4] = cycloheximide chase, western blot
[5] = western blot at equal CTSD expression, SW480

Substance | expression_or_secretion [1] | enzymatic_activity [2] | localisation_or_trafficking [3] | other: ferroptosis protein levels (SLC7A11, GPX4) (western blot) | degradation_or_half_life [4] | other: cellular level of substrate ACADM [5]
Cathepsin D (CTSD): N263Q/N134Q | increases | decreases | abolishes |  |  | 
Cathepsin D (CTSD): N263Q | decreases | decreases | abolishes | decreases | decreases | increases
